Assays:
human CD20 [1] = molecular target: T1, human CD20 (human, UniProt P11836 1-297); assay: cell-based or functional assay
T1 sequence: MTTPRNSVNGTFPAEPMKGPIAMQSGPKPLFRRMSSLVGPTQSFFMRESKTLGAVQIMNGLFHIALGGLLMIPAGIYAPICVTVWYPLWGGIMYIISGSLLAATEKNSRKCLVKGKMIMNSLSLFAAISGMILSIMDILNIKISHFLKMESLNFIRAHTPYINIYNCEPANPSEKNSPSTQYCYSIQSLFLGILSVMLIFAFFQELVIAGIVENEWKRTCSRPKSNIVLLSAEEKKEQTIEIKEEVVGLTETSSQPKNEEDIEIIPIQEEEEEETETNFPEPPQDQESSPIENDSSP

human CD20 [2] = molecular target: T1, human CD20; assay: flow cytometry on a human B-cell lymphoma cell line, 30 min at 4 C, detection with FITC-labeled F(ab)'2 goat anti-human Fc-gamma-specific antibody, median fluorescence intensity
[3] = molecular target: human transferrin receptor 1 on MDCKII cells transfected with huTfR1 (human, UniProt P02786 1-760); assay: cell-based or functional assay
Sequence of human transferrin receptor 1 on MDCKII cells transfected with huTfR1 (P02786 whole entry): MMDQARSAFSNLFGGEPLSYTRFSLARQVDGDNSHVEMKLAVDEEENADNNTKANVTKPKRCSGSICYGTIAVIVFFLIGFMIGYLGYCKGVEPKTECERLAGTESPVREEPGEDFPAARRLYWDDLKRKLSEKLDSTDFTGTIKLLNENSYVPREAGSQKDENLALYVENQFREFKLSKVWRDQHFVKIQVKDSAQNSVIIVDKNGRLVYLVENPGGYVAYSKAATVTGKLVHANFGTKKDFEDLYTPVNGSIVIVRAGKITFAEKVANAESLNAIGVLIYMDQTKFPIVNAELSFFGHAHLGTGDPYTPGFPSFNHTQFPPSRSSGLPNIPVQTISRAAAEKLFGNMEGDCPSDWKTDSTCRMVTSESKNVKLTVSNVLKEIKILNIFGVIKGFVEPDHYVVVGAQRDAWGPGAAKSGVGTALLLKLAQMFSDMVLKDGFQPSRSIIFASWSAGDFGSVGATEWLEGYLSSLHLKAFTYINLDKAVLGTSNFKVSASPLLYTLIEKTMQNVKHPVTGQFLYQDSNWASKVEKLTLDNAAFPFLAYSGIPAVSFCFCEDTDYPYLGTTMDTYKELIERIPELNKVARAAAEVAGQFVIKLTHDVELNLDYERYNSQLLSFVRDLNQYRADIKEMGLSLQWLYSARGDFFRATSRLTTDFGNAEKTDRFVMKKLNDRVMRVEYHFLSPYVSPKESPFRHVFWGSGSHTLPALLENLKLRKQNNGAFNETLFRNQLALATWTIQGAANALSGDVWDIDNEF

[4] = molecular target: T2, cynomolgus monkey transferrin receptor 1 (cynomolgus monkey, UniProt H9EXL1 89-760 (rhesus entry)); assay: surface plasmon resonance at 37° C.; cynomolgus TfR1; SPR at 37° C.
T2 construct: also called cyTfR1
T2 sequence (chain, as listed by the source): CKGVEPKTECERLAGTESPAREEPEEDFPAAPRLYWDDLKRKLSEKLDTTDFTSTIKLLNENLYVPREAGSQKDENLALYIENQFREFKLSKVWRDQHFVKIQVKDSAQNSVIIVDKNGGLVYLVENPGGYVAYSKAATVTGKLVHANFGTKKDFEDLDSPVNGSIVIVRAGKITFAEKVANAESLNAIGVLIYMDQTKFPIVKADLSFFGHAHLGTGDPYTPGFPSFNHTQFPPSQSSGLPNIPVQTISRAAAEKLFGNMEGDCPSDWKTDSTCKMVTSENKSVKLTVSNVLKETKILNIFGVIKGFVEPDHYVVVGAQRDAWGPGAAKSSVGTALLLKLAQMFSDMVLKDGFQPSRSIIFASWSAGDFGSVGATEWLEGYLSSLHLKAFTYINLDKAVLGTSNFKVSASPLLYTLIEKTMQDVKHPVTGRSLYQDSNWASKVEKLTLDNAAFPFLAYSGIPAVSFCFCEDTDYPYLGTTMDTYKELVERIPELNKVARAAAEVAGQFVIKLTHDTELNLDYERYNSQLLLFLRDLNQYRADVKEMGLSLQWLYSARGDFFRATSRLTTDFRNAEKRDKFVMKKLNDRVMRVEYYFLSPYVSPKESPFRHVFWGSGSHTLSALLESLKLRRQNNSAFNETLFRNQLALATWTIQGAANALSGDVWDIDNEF

[5] = molecular target: CD20 (species not stated, in-vitro-measured KD used in the cynomolgus monkey PK model); assay: in vitro measurement, method not stated; value used in the PK model

EC50 of CD19+-B-cell depletion, ex vivo human tonsil-derived cells, average of three donors (human CD20 [1]): 400 pM | EC50 of CD19+-B-cell depletion, ex vivo human tonsil-derived cells, donor T1 (human CD20 [1]): 440 pM | EC50 of CD19+-B-cell depletion, ex vivo human tonsil-derived cells, donor T2 (human CD20 [1]): 200 pM | EC50 of CD19+-B-cell depletion, ex vivo human tonsil-derived cells, donor T3 (human CD20 [1]): 550 pM | EC50 (read off the curve) (human CD20 [2]): ~3000 pM | intracellular uptake in MDCKII-huTfR cells against non-transfected MDCKII-parental cells, 30-minute pulse, IgG ELISA [3]: 30 fold | Kd [4]: 694000 pM | Kd [5]: 3300 pM
B1: RG6035 (bispecific antibody, human IgG1, kappa, L234A L235A)
light 1: DIVMTQTPLSLPVTPGEPASISCRSSKSLLHSNGITYLYWYLQKPGQSPQLLIYQMSNLVSGVPDRFSGSGSGTDFTLKISRVEAEDVGVYYCAQNLELPYTFGGGTKVEIKRTVAAPSVFIFPPSDRKLKSGTASVVCLLNNFYPREAKVQWKVDNALQSGNSQESVTEQDSKDSTYSLSSTLTLSKADYEKHKVYACEVTHQGLSSPVTKSFNRGEC
heavy 1: VQLVQSGAEVKKPGSSVKVSCKASGYAFSYSWINWVRQAPGQGLEWMGRIFPGDGDTDYNGKFKGRVTITADKSTSTAYMELSSLRSEDTAVYYCARNVFDGYWLVYWGQGTLVTVSSASTKGPSVFPLAPSSKSTSGGTAALGCLVEDYFPEPVTVSWNSGALTSGVHTFPAVLQSSGLYSLSSVVTVPSSSLGTQTYICNVNHKPSNTKVDEKVEPKSCDKTHTCPPCPAPEAAGGPSVFLFPPKPKDTLMISRTPEVTCVVVDVSHEDPEVKFNWYVDGVEVHNAKTKPREEQYNSTYRVVSVLTVLHQDWLNGKEYKCKVSNKALGAPIEKTISKAKGQPREPQVCTLPPSRDELTKNQVSLSCAVKGFYPSDIAVEWESNGQPENNYKTTPPVLDSDGSFFLVSKLTVDKSRWQQGNVFSCSVMHEALHNHYTQKSLSLSPG
light 2: AIQLTQSPSSLSASVGDRVTITCRASQSISSYLAWYQQKPGKAPKLLIYRASTLASGVPSRFSGSGSGTDFTLTISSLQPEDFATYYCQQNYASSNVDNTFGGGTKVEIKSSASTKGPSVFPLAPSSKSTSGGTAALGCLVKDYFPEPVTVSWNSGALTSGVHTFPAVLQSSGLYSLSSVVTVPSSSLGTQTYICNVNHKPSNTKVDKKVEPKSC
heavy 2: not shown
notes: human IgG1 Fc with L234A, L235A, P329G; also called RO7121932; BS-CD20

— patent US20260159601A1 (Hoffmann-La Roche, published 2026)
